The record followed here is US20240101683A1 (published 2024).

For assay [1], the target named is T1, rhFGFR2IIIb-Fc (recombinant human FGFR2IIIb-Fc) (human, UniProt P21802-3 22-378, limits assumed).
T1 construct: Coated on the ELISA plate at 2 ug/mL; not shown: Fc part
Nature of the assay: ELISA, coated rhFGFR2IIIb-Fc, anti-Fab HRP.

For another assay, the target named is T2, Human FGFR2βIIIb (human, UniProt P21802-21 22-263, limits assumed).
T2 construct: Construct used in the ELISA (tag, Fc, limits) is not described
Put plainly: ELISA, coated antigen, anti-Fab HRP. For orientation: In an ELISA, binding on a coated surface is turned into a signal by an enzyme label.

The next assay addresses T3, Murine FGFR2IIIb (murine, UniProt P21803-2 22-263, limits assumed).
T3 construct: Construct used in the ELISA is not described
Nature of the assay: ELISA, coated antigen, anti-Fab HRP.

As a reminder, the EC50 is the concentration that produces a half-maximal response.

T2 sequence (P21802 other isoform, or with tags, fused parts or gaps limits assumed): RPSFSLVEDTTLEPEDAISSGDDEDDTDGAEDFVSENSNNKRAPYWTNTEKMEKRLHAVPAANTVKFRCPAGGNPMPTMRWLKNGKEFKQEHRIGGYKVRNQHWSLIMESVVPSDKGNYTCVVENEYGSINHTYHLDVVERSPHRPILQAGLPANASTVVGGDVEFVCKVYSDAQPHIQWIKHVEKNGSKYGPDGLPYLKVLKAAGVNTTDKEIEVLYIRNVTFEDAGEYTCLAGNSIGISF
T1 sequence (P21802 other isoform, or with tags, fused parts or gaps limits assumed): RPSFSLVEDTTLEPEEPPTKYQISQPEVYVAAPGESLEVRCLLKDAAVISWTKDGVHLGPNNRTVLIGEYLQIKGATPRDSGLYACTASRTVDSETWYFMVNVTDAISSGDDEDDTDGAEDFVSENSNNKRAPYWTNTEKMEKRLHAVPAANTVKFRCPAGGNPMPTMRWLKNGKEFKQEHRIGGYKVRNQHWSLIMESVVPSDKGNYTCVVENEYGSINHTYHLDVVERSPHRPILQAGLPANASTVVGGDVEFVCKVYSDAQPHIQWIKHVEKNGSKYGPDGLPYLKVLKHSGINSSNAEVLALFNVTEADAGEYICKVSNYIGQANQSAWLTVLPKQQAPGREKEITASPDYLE
T3 sequence (P21803 other isoform, or with tags, fused parts or gaps limits assumed): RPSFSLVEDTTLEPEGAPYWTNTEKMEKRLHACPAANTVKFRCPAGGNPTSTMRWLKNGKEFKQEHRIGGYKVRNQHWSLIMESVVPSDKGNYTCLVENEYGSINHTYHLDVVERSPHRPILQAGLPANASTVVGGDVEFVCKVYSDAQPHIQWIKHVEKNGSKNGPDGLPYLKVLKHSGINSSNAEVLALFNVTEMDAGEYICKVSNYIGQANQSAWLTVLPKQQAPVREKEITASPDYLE

B1: FWB1904 (antibody, V domains shown)
VH: QVQLVQSGAEVKKPGSSVKVSCKASGYIFTSYNVHWVRQAPGQGLEWIGSIYPDNGDTSYNQNFRGRATITADKSTSTAYMELSSLRSEDTAVYYCARGDFAYWGQGTLVTVSS
VL: DIQMTQSPSSLSASVGDRVTITCKASNGISNDIAWYQQKPGKAPKLLIYSASYRYSGVPSRFSGSGSGTDFTFTISSLQPEDIATYYCQQHSTTPYTFGQGTKLEIK
Regarding B1, the EC50 is 352 pM in assay [1], 162 pM with Human FGFR2βIIIb and 308 pM with Murine FGFR2IIIb.

B2: FWB1920 (antibody, V domains shown)
VH: QVQLVQSGAEVKKPGSSVKVSCKASGYIFTSYNIHWVRQAPGQGLEWIGSIYPDNGDSSYNQNYRGRATITADKSTSTAYMELSSLRSEDTAVYYCARGDFAYWGQGTLVTVSS
VL: DIQMTQSPSSLSASVGDRVTITCKGSNGVSNDIAWYQQKPGKAPKLLIYSASYRYSGVPSRFSGSGSGTDFTFTISSLQPEDIATYYCQQHSTTPYTFGQGTKLEIK
As for B2, the results for the EC50 (in assay [1]; in the assay with Human FGFR2βIIIb; with Murine FGFR2IIIb) were 1210 pM, 153 pM and 274 pM, respectively.

B3: FWB1914 (antibody, V domains shown)
VH: QVQLVQSGAEVKKPGSSVKVSCKASGYIFTSYNVHWVRQAPGQGLEWIGSIYPDNGDSSYNNNYKGRATITADKSTSTAYMELSSLRSEDTAVYYCARGDFAYWGQGTLVTVSS
VL: DIQMTQSPSSLSASVGDRVTITCKASNGVSNDIAWYQQKPGKAPKLLIYSASYRYSGVPSRFSGSGSGTDFTFTISSLQPEDIATYYCQQHSTTPYTFGQGTKLEIKR
Regarding B3, the EC50 in assay [1] was found to be 1010 pM; in the assay with Human FGFR2βIIIb, 203 pM; in the assay with Murine FGFR2IIIb, 250 pM.

B4: FWB1911 (antibody, V domains shown)
VH: QVQLVQSGAEVKKPGSSVKVSCKASGYIFTSYNVHWVRQAPGQGLEWIGSIYPDNGDSSYNQNYKGRATITADKSTSTAYMELSSLRSEDTAVYYCARGDFAYWGQGTLVTVSS
VL: DIQMTQSPSSLSASVGDRVTITCKASNGVSNDIAWYQQKPGKAPKLLIYSASYRYSGVPSRFSGSGSGTDFTFTISSLQPEDIATYYCQQHSTTPYSFGQGTKLEIK
In the case of B4, the concentration for a half-maximal effect (EC50) in assay [1] amounted to 697 pM; with Human FGFR2βIIIb, 246 pM; with Murine FGFR2IIIb, 338 pM.

B5: FWB1913 (antibody, V domains shown)
VH: QVQLVQSGAEVKKPGSSVKVSCKASGYIFTSYNVHWVRQAPGQGLEWIGSIYPDNGDSSYNQNYKGRATITADKSTSTAYMELSSLRSEDTAVYYCARGDYAYWGQGTLVTVSS
VL: DIQMTQSPSSLSASVGDRVTITCKASNGVSNDIAWYQQKPGKAPKLLIYSASYRYSGVPSRFSGSGSGTDFTFTISSLQPEDIATYYCQQHSTTPYSFGQGTKLEIK
For B5, the results for the EC50 (in assay [1]; in the assay with Human FGFR2βIIIb; in the assay with Murine FGFR2IIIb) were 903 pM, 196 pM and 296 pM, respectively.

B6: FWB1908 (antibody, V domains shown)
VH: QVQLVQSGAEVKKPGSSVKVSCKASGYIFTTYNVHWVRQAPGQGLEWIGSIYPDNGDSTYNQNFKGRATITADKSTSTAYMELSSLRSEDTAVYYCARGDFAYWGQGTLVTVSS
VL: DIQMTQSPSSLSASVGDRVTITCKGSQGVSNDVAWYQQKPGKAPKLLIYSASYRYTGVPSRFSGSGSGTDFTFTISSLQPEDIATYYCQQHSTTPYTFGQGTKLEIK
With B6, the values for the EC50 (in assay [1]; in the assay with Human FGFR2βIIIb; with Murine FGFR2IIIb) were 281 pM, 126 pM and 225 pM, respectively.

B7: FWB1910 (antibody, V domains shown)
VH: QVQLVQSGAEVKKPGSSVKVSCKASGYIFTTYNVHWVRQAPGQGLEWIGSIYPDNGDTSYDEDFKGRATITADKSTSTAYMELSSLRSEDTAVYYCARGDFAYWGQGTLVTVSS
VL: DIQMTQSPSSLSASVGDRVTITCKVSQGVSNDAVWYQQKPGKAPKLLIYSASYRYTGVPSRFSGSGSGTDFTFTISSLQPEDIATYYCQQHSTTPYTFGQGTKLEIK
Take B7: the EC50 in assay [1] was found to be 279 pM; with Human FGFR2βIIIb, 210 pM; with Murine FGFR2IIIb it was 296 pM.

B8: FWB1912 (antibody, V domains shown)
VH: QVQLVQSGAEVKKPGSSVKVSCKASGYIFTSYNVHWVRQAPGQGLEWIGSIYPDNGDSSYNQNYKGRATITADKSTSTAYMELSSLRSEDTAVYYCARGDYAYWGQGTLVTVSS
VL: DIQMTQSPSSLSASVGDRVTITCKASNGVSNDIAWYQQKPGKAPKLLIYSASYRYSGVPSRFSGSGSGTDFTFTISSLQPEDIATYYCQQHSTTPYTFGQGTKLEIK
For B8, the figures for the EC50 (in assay [1]; with Human FGFR2βIIIb; with Murine FGFR2IIIb) were 724 pM, 207 pM and 293 pM, respectively.

B9: FWB1918 (antibody, V domains shown)
VH: QVQLVQSGAEVKKPGSSVKVSCKASGYIFTSYNVHWVRQAPGQGLEWIGSIYPDNGDSSYNQNFRGRATITADKSTSTAYMELSSLRSEDTAVYYCARGDFAYWGQGTLVTVSS
VL: DIQMTQSPSSLSASVGDRVTITCKGSNGISNDIAWYQQKPGKAPKLLIYSASYRYSGVPSRFSGSGSGTDFTFTISSLQPEDIATYYCQQHSTTPYTFGQGTKLEIK
In the case of B9, the figures for the EC50 (in assay [1]; with Human FGFR2βIIIb; with Murine FGFR2IIIb) were 626 pM, 135 pM and 270 pM, respectively.

B10: FWB1905 (antibody, V domains shown)
VH: QVQLVQSGAEVKKPGSSVKVSCKASGYIFTSYNVHWVRQAPGQGLEWIGSIYPDNGDSSYNQNYKGRATITADKSTSTAYMELSSLRSEDTAVYYCARGDFAYWGQGTLVTVSS
VL: DIQMTQSPSSLSASVGDRVTITCKASNGVSNDIAWYQQKPGKAPKLLIYSASYRYSGVPSRFSGSGSGTDFTFTISSLQPEDIATYYCQQHSTTPYTFGQGTKLEIK
In the case of B10, the EC50 in assay [1] is 298 pM; with Human FGFR2βIIIb, 173 pM; with Murine FGFR2IIIb, 262 pM.

B11: FWB1921 (antibody, V domains shown)
VH: QVQLVQSGAEVKKPGSSVKVSCKASGYIFTSYNVHWVRQAPGQGLEWIGSIYPDNGDSTYNQNYRGRATITADKSTSTAYMELSSLRSEDTAVYYCARGDFAYWGQGTLVTVSS
VL: DIQMTQSPSSLSASVGDRVTITCKGSNGVSNDIAWYQQKPGKAPKLLIYSASYRYSGVPSRFSGSGSGTDFTFTISSLQPEDIATYYCQQHSTTPYTFGQGTKLEIK
B11: the half-maximal effective concentration (EC50) came out at 620 pM in assay [1], 176 pM with Human FGFR2βIIIb and 260 pM in the assay with Murine FGFR2IIIb.

B12: FWB1923 (antibody, V domains shown)
VH: QVQLVQSGAEVKKPGSSVKVSCKASGYIFTSYNVHWVRQAPGQGLEWIGSIYPDNGDSTYDEDFKGRATITADKSTSTAYMELSSLRSEDTAVYYCARGDFAYWGQGTLVTVSS
VL: DIQMTQSPSSLSASVGDRVTITCKVSQGVSNDAVWYQQKPGKAPKLLIYSASYRYSGVPSRFSGSGSGTDFTFTISSLQPEDIATYYCQQHSTTPYTFGQGTKLEIK
Turning to B12, the EC50 in assay [1] turned out to be 1680 pM.

B13: FWB1915 (antibody, V domains shown)
VH: QVQLVQSGAEVKKPGSSVKVSCKASGYIFTSYNVHWVRQAPGQGLEWIGSIYPDNGDSSYDEDYKGRATITADKSTSTAYMELSSLRSEDTAVYYCARGDFAYWGQGTLVTVSS
VL: DIQMTQSPSSLSASVGDRVTITCKASNGVSNDIAWYQQKPGKAPKLLIYSASYRYSGVPSRFSGSGSGTDFTFTISSLQPEDIATYYCQQHSTTPYTFGQGTKLEIK
Regarding B13, the figures for the EC50 (in assay [1]; with Human FGFR2βIIIb; with Murine FGFR2IIIb) were 877 pM, 185 pM and 273 pM, respectively.

B14: FWB1922 (antibody, V domains shown)
VH: QVQLVQSGAEVKKPGSSVKVSCKASGYIFTSYNVHWVRQAPGQGLEWIGSIYPDNGDSTYNQNYRGRATITADKSTSTAYMELSSLRSEDTAVYYCARGDFAYWGQGTLVTVSS
VL: DIQMTQSPSSLSASVGDRVTITCKGSNGISNDIAWYQQKPGKAPKLLIYSASYRYSGVPSRFSGSGSGTDFTFTISSLQPEDIATYYCQQHSTTPYTFGQGTKLEIK
In the case of B14, the results for the EC50 (in assay [1]; with Human FGFR2βIIIb; in the assay with Murine FGFR2IIIb) were 656 pM, 215 pM and 139 pM, respectively.

B15: FWB1916 (antibody, V domains shown)
VH: QVQLVQSGAEVKKPGSSVKVSCKASGYIFTSYNVHWVRQAPGQGLEWIGSIYPDNGDSSYNQNYKGRATITADKSTSTAYMELSSLRSEDTAVYYCARGDFAYWGQGTLVTVSS
VL: DIQMTQSPSSLSASVGDRVTITCKASNGISNDIAWYQQKPGKAPKLLIYSASYRYSGVPSRFSGSGSGTDFTFTISSLQPEDIATYYCQQHSTTPYTFGQGTKLEIK
With B15, the EC50 in assay [1] was determined as 582 pM; in the assay with Human FGFR2βIIIb, 143 pM; in the assay with Murine FGFR2IIIb, 290 pM.

B16: FWB1907 (antibody, V domains shown)
VH: QVQLVQSGAEVKKPGSSVKVSCKASGYIFTSYNVNWVRQAPGQGLEWIGSIYPDNGDSSYNNNYKGRATITADKSTSTAYMELSSLRSEDTAVYYCARGDFAYWGQGTLVTVSS
VL: DIQMTQSPSSLSASVGDRVTITCRASNGISNDIAWYQQKPGKAPKLLIYSASYRYSGVPSRFSGSGSGTDFTFTISSLQPEDIATYYCQQHSTTPYTFGQGTKLEIK
B16: the EC50 in assay [1] was 1060 pM; in the assay with Human FGFR2βIIIb, 262 pM; with Murine FGFR2IIIb it was 5900 pM.

B17: FWB1924 (antibody, V domains shown)
VH: QVQLVQSGAEVKKPGSSVKVSCKASGYIFTSYNVHWVRQAPGQGLEWIGSLYPDNGDTSYDEDYKGRATITADKSTSTAYMELSSLRSEDTAVYYCARGDFAYWGQGTLVTVSS
VL: DIQMTQSPSSLSASVGDRVTITCKVSQGVSNDAVWYQQKPGKAPKLLIYSASYRYSGVPSRFSGSGSGTDFTFTISSLQPEDIATYYCQQHSTTPYTFGQGTKLEIK
For the molecule B17, the EC50 in assay [1] came out at 1880 pM.

B18: FWB1919 (antibody, V domains shown)
VH: QVQLVQSGAEVKKPGSSVKVSCKASGYIFTSYNVHWVRQAPGQGLEWIGSIYPDNGDSSYNQNYRGRATITADKSTSTAYMELSSLRSEDTAVYYCARGDFAYWGQGTLVTVSS
VL: DIQMTQSPSSLSASVGDRVTITCRGSNGISNDIAWYQQKPGKAPKLLIYSASYRYSGVPSRFSGSGSGTDFTFTISSLQPEDIATYYCQQHSTTPYTFGQGTKLEIK
Regarding B18, the EC50 turned out to be 879 pM in assay [1], 149 pM with Human FGFR2βIIIb and 314 pM with Murine FGFR2IIIb.
